Assays:
[1] = target: T1, rHuman ErbB2/Fc Chimera, CF (R&D Systems Cat#1129-ER) (human, UniProt P04626 23-652); assay: ECL multispot (MSD), 20 nM Fab;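 further: purified Fab binding to antigens on multispot plates, read by electrochemiluminescence with a TAG-labelled detection antibody, 1 h Fab incubation at 20 °C, signal expressed relative to each well's blank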
T1 construct: Bought recombinant protein; also called human epidermal growth factor 2 receptor; Fc part of the bought chimera not given

[2] = target: T2, rHuman EGF R/Fc Chimera, CF (R&D Systems Cat#344-ER) (human, UniProt P00533 25-645); assay: ECL multispot (MSD), 20 nM Fab;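 further: purified Fab binding to antigens on multispot plates, read by electrochemiluminescence with a TAG-labelled detection antibody, 1 h Fab incubation at 20 °C, signal expressed relative to each well's blank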
T2 construct: Bought recombinant protein; also called epidermal growth factor receptor; Fc part of the bought chimera not given

[3] = target: T3, rHuman CD44/Fc Chimera, CF (R&D Systems Cat#3660-CD) (human, UniProt P16070 21-220); assay: ECL multispot (MSD), 20 nM Fab;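 further: purified Fab binding to antigens on multispot plates, read by electrochemiluminescence with a TAG-labelled detection antibody, 1 h Fab incubation at 20 °C, signal expressed relative to each well's blank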
T3 construct: Bought recombinant protein; Fc part of the bought chimera not given

[4] = target: T4, rHuman IGF-1 sR, (IGF-1 sR), CF (R&D Systems Cat#391-GR) (human, UniProt P08069 31-932); assay: ECL multispot (MSD), 20 nM Fab;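 further: purified Fab binding to antigens on multispot plates, read by electrochemiluminescence with a TAG-labelled detection antibody, 1 h Fab incubation at 20 °C, signal expressed relative to each well's blank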
T4 construct: Bought recombinant soluble receptor; also called insulin-like growth factor-1 soluble receptor

[5] = target: T5, rHuman Erythropoietin R/Fc Chimera, CF (R&D Systems Cat#963-ER) (human, UniProt P19235 25-250); assay: ECL multispot (MSD), 20 nM Fab
T5 construct: Bought recombinant protein; also called EPO R; EPO R/Fc; Fc part of the bought chimera not given
T5 sequence (looked up): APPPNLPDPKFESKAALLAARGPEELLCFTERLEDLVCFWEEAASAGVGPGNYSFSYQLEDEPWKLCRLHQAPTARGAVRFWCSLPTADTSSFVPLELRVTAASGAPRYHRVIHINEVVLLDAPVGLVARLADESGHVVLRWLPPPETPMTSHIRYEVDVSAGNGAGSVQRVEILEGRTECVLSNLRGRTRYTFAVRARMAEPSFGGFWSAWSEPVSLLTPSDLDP

[6] = target: T6, rHuman P-Cadherin/Fc Chimera, CF (R&D Systems Cat#861-PC) (human, UniProt P22223 108-654); assay: ECL multispot (MSD), 20 nM Fab
T6 construct: Bought recombinant protein; Fc part of the bought chimera not given

[7] = target: T7, Recombinant Human DLL4 (R&D Systems Cat#1506-D4/CF) (human, UniProt Q9NR61 27-524); assay: ELISA, DLL4 coated on plate, Fab at 20 nM
T7 construct: Bought recombinant protein; also called delta-like protein 4; Delta-like 4

[8] = target: T7, Recombinant Human DLL4 (R&D Systems …); assay: ELISA, DLL4 coated on plate, Fab at 6.67 nM
[9] = target: T7, Recombinant Human DLL4 (R&D Systems …); assay: ECL (Meso Scale Discovery) multispot binding assay, DLL4 immobilised, Fab at 100 nM
[10] = target: T7, Recombinant Human DLL4 (R&D Systems …); assay: ELISA, DLL4 coated on plate, Fab at 2.22 nM
[11] = target: T7, Recombinant Human DLL4 (R&D Systems …); assay: ELISA, DLL4 coated on plate, Fab at 0.74 nM
[12] = target: T8, Recombinant Human DLL4 (delta-like protein 4) (human, UniProt Q9NR61 27-524); assay: ECL (MSD) multispot binding assay, Fab on immobilised recombinant human DLL4
T8 construct: also called rHuman DLL4; Delta-like 4

B1: Fab VH3-23_IGHD2-21*01>3_IGHJ6*01 H100E/S108P/Y113G (EPG) & V2-13_IGLJ2*01 (Fab, V domains shown)
VH: not shown
VL: SSELTQDPAVSVALGQTVRITCQGDSLRSYYASWYQQKPGQAPVLVIYGKNNRPSGIPDRFSGSSSGNTASLTITGAQAEDEADYYCNSRDSSGNHLVVFGGGTKLTVL
notes: Fab; CH1 (His and Flag tags) and lambda CL come from the expression vectors; also called H:EPG
ECL signal ratio (column head gives no unit) [1]: 11.7
ECL signal ratio (column head gives no unit) [2]: 8.4
ECL signal ratio (column head gives no unit) [3]: 1.7
ECL signal ratio (column head gives no unit) [4]: 1.7

B2: Fab VH3-23_IGHD2-21*01>3_IGHJ6*01 H100E/S108P/Y113G (EPG) Y109W & V2-13_IGLJ2*01 (Fab, V domains shown)
VH: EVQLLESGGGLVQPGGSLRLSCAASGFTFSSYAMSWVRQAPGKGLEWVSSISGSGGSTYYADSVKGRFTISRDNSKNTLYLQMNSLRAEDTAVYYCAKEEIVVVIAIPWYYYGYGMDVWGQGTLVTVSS
VL: SSELTQDPAVSVALGQTVRITCQGDSLRSYYASWYQQKPGQAPVLVIYGKNNRPSGIPDRFSGSSSGNTASLTITGAQAEDEADYYCNSRDSSGNHLVVFGGGTKLTVL
notes: Fab; NNK mutant of the EPG heavy chain; CH1 (tags) and lambda CL come from the vectors
ECL signal ratio (column head gives no unit) [5]: 169
ECL signal ratio (column head gives no unit) [1]: 16.1
ECL signal ratio (column head gives no unit) [2]: 11.1
ECL signal ratio (column head gives no unit) [6]: 32
ECL signal ratio (column head gives no unit) [4]: 1.5

B3: Fab VH5-51_IGHD5-18*01>3_IGHJ4*01 G100K/G104T (H:KT) & V3-4_IGLJ1*01 (Fab, V domains shown)
VH: EVQLVQSGAEVKKPGESLKISCKGSGYSFTSYWIGWVRQMPGKGLEWMGIIYPGDSDTRYSPSFQGQVTISADKSISTAYLQWSSLKASDTAMYYCARRKYSYTYDYFDYWGQGTLVTVSS
VL: QTVVTQEPSFSVSPGGTVTLTCGLSSGSVSTSYYPSWYQQTPGQAPRTLIYSTNTRSSGVPDRFSGSILGNKAALTITGAQADDESDYYCVLYMGSGISYVFGTGTKVTVL
notes: Fab expressed in E. coli; Plasmid A adds CH1 with His6 and Flag tags to the heavy chain; Plasmid E adds lambda CL to the light chain; also called H:KT & L:wt; KT double mutant
ELISA signal [7]: 0.018
ELISA signal [8]: 0.042
ECL signal [9]: 9360
ELISA signal [10]: 0.014
ELISA signal [11]: 0.019

B4: Fab VH5-51_IGHD5-18*01>3_IGHJ4*01 G100K/G104T (H:KT) & V3-4_IGLJ1*01 (wildtype light chain) (Fab, V domains shown)
VH: EVQLVQSGAEVKKPGESLKISCKGSGYSFTSYWIGWVRQMPGKGLEWMGIIYPGDSDTRYSPSFQGQVTISADKSISTAYLQWSSLKASDTAMYYCARRKYSYTYDYFDYWGQGTLVTVSS
VL: QTVVTQEPSFSVSPGGTVTLTCGLSSGSVSTSYYPSWYQQTPGQAPRTLIYSTNTRSSGVPDRFSGSILGNKAALTITGAQADDESDYYCVLYMGSGISYVFGTGTKVTVL
notes: Fab made in E. coli; VH was cloned into Plasmid A (CH1, His6 and Flag tags) and lambda VL into Plasmid E (lambda CL); also called H:KT & L:wt; KT double mutant
ECL signal [12]: 9360

B5: Fab VH5-51_IGHD5-18*01>3_IGHJ4*01 G100K/G104T G24T/S28R/G35V (H:KT TRV) & V3-4_IGLJ1*01 M94R/S96M (L:RM) (Fab, V domains shown)
VH: EVQLVQSGAEVKKPGESLKISCKTSGYRFTSYWIVWVRQMPGKGLEWMGIIYPGDSDTRYSPSFQGQVTISADKSISTAYLQWSSLKASDTAMYYCARRKYSYTYDYFDYWGQGTLVTVSS
VL: QTVVTQEPSFSVSPGGTVTLTCGLSSGSVSTSYYPSWYQQTPGQAPRTLIYSTNTRSSGVPDRFSGSILGNKAALTITGAQADDESDYYCVLYRGMGISYVFGTGTKVTVL
notes: Fab expressed in E. coli; Plasmid A adds CH1 with His6 and Flag tags to the heavy chain; Plasmid E adds lambda CL to the light chain; also called H:KT TRV & L:RM; G100K/G104T G24T/S28R/G35V & M94R/S96M
ELISA signal [7]: 0.122
ELISA signal [8]: 0.062
ELISA signal [10]: 0.028
ELISA signal [11]: 0.006

B6: Fab VH5-51_IGHD5-18*01>3_IGHJ4*01 G100K/G104T (H:KT) & V3-4_IGLJ1*01 N54A (Fab, V domains shown)
VH: EVQLVQSGAEVKKPGESLKISCKGSGYSFTSYWIGWVRQMPGKGLEWMGIIYPGDSDTRYSPSFQGQVTISADKSISTAYLQWSSLKASDTAMYYCARRKYSYTYDYFDYWGQGTLVTVSS
VL: QTVVTQEPSFSVSPGGTVTLTCGLSSGSVSTSYYPSWYQQTPGQAPRTLIYSTATRSSGVPDRFSGSILGNKAALTITGAQADDESDYYCVLYMGSGISYVFGTGTKVTVL
notes: Fab (CH1 with His6/Flag tags from Plasmid A, lambda CL from Plasmid E); also called G100K/G104T & N54A
ECL signal [12]: 12900

B7: Fab VH5-51_IGHD5-18*01>3_IGHJ4*01 G100K/G104T (H:KT) & V3-4_IGLJ1*01 S57A (Fab, V domains shown)
VH: EVQLVQSGAEVKKPGESLKISCKGSGYSFTSYWIGWVRQMPGKGLEWMGIIYPGDSDTRYSPSFQGQVTISADKSISTAYLQWSSLKASDTAMYYCARRKYSYTYDYFDYWGQGTLVTVSS
VL: QTVVTQEPSFSVSPGGTVTLTCGLSSGSVSTSYYPSWYQQTPGQAPRTLIYSTNTRASGVPDRFSGSILGNKAALTITGAQADDESDYYCVLYMGSGISYVFGTGTKVTVL
notes: Fab (CH1 with His6/Flag tags from Plasmid A, lambda CL from Plasmid E); also called G100K/G104T & S57A
ECL signal [12]: 12600

B8: Fab VH5-51_IGHD5-18*01>3_IGHJ4*01 G100K/G104T (H:KT) & V3-4_IGLJ1*01 T55A (Fab, V domains shown)
VH: EVQLVQSGAEVKKPGESLKISCKGSGYSFTSYWIGWVRQMPGKGLEWMGIIYPGDSDTRYSPSFQGQVTISADKSISTAYLQWSSLKASDTAMYYCARRKYSYTYDYFDYWGQGTLVTVSS
VL: QTVVTQEPSFSVSPGGTVTLTCGLSSGSVSTSYYPSWYQQTPGQAPRTLIYSTNARSSGVPDRFSGSILGNKAALTITGAQADDESDYYCVLYMGSGISYVFGTGTKVTVL
notes: Fab (CH1 with His6/Flag tags from Plasmid A, lambda CL from Plasmid E); also called G100K/G104T & T55A
ECL signal [12]: 12700

B9: Fab VH5-51_IGHD5-18*01>3_IGHJ4*01 G100K/G104T (H:KT) & V3-4_IGLJ1*01 T53A (Fab, V domains shown)
VH: EVQLVQSGAEVKKPGESLKISCKGSGYSFTSYWIGWVRQMPGKGLEWMGIIYPGDSDTRYSPSFQGQVTISADKSISTAYLQWSSLKASDTAMYYCARRKYSYTYDYFDYWGQGTLVTVSS
VL: QTVVTQEPSFSVSPGGTVTLTCGLSSGSVSTSYYPSWYQQTPGQAPRTLIYSANTRSSGVPDRFSGSILGNKAALTITGAQADDESDYYCVLYMGSGISYVFGTGTKVTVL
notes: Fab (CH1 with His6/Flag tags from Plasmid A, lambda CL from Plasmid E); also called G100K/G104T & T53A
ECL signal [12]: 13200

B10: Fab VH5-51_IGHD5-18*01>3_IGHJ4*01 G100K/G104T S28R (H:KT S28R) & V3-4_IGLJ1*01 (Fab, V domains shown)
VH: EVQLVQSGAEVKKPGESLKISCKGSGYRFTSYWIGWVRQMPGKGLEWMGIIYPGDSDTRYSPSFQGQVTISADKSISTAYLQWSSLKASDTAMYYCARRKYSYTYDYFDYWGQGTLVTVSS
VL: QTVVTQEPSFSVSPGGTVTLTCGLSSGSVSTSYYPSWYQQTPGQAPRTLIYSTNTRSSGVPDRFSGSILGNKAALTITGAQADDESDYYCVLYMGSGISYVFGTGTKVTVL
notes: Fab expressed in E. coli; Plasmid A adds CH1 with His6 and Flag tags to the heavy chain; Plasmid E adds lambda CL to the light chain; also called H:KT S28R & L:wt; G100K/G104T S28R & parent
ELISA signal [7]: 0.009
ELISA signal [8]: 0.003
ELISA signal [10]: 0
ELISA signal [11]: 0

B11: Fab VH5-51_IGHD5-18*01>3_IGHJ4*01 G100K/G104T (H:KT) & V3-4_IGLJ1*01 S58A (Fab, V domains shown)
VH: EVQLVQSGAEVKKPGESLKISCKGSGYSFTSYWIGWVRQMPGKGLEWMGIIYPGDSDTRYSPSFQGQVTISADKSISTAYLQWSSLKASDTAMYYCARRKYSYTYDYFDYWGQGTLVTVSS
VL: QTVVTQEPSFSVSPGGTVTLTCGLSSGSVSTSYYPSWYQQTPGQAPRTLIYSTNTRSAGVPDRFSGSILGNKAALTITGAQADDESDYYCVLYMGSGISYVFGTGTKVTVL
notes: Fab (CH1 with His6/Flag tags from Plasmid A, lambda CL from Plasmid E); also called G100K/G104T & S58A
ECL signal [12]: 12600

B12: Fab VH5-51_IGHD5-18*01>3_IGHJ4*01 G100K/G104T (H:KT) & V3-4_IGLJ1*01 S52A (Fab, V domains shown)
VH: EVQLVQSGAEVKKPGESLKISCKGSGYSFTSYWIGWVRQMPGKGLEWMGIIYPGDSDTRYSPSFQGQVTISADKSISTAYLQWSSLKASDTAMYYCARRKYSYTYDYFDYWGQGTLVTVSS
VL: QTVVTQEPSFSVSPGGTVTLTCGLSSGSVSTSYYPSWYQQTPGQAPRTLIYATNTRSSGVPDRFSGSILGNKAALTITGAQADDESDYYCVLYMGSGISYVFGTGTKVTVL
notes: Fab (CH1 with His6/Flag tags from Plasmid A, lambda CL from Plasmid E); also called G100K/G104T & S52A
ECL signal [12]: 15200
